# Reference: patent publication US20240174748A1 (INNATE PHARMA, published 2024)
# Residue numbers refer to the chain shown, from its start.
# B1: NKp46-4 H2L2 (antibody, human IgG1, V domains shown)
# VH: QVQLVQSGAEVKKPGASVKVSCKASGYTFTSFTMHWVRQAPGQGLEWIGYINPSSGYTEYNQKFKDRTTITADKSTSTAYMELSSLRSEDTAVYYCVRGSSRGFDYWGQGTLVTVSS
# VL: DIQMTQSPSSLSASVGDRVTITCRASENIYSNLAWFQQKPGKAPKLLVYAATNLADGVPSRFSGSGSGTDYTLTISSLQPEDFATYYCQHFWGTPRTFGGGTKVEIK
# notes: Produced as human IgG1
# B2: NKp46-4 H3L2 (antibody, human IgG1, V domains shown)
# VH: B1 VH with I70L
# VL: B1 VL
# notes: Produced as human IgG1
# Target: T1, Cynomolgus NKp46 (Macaca fascicularis (cynomolgus), UniProt Q95JB9 22-254)
# T1 construct: also called cynomologus NKp46; macaca fascicularis NKp46
# Experiment: not stated (human IgG1)
# T1 sequence (Q95JB9 22-254): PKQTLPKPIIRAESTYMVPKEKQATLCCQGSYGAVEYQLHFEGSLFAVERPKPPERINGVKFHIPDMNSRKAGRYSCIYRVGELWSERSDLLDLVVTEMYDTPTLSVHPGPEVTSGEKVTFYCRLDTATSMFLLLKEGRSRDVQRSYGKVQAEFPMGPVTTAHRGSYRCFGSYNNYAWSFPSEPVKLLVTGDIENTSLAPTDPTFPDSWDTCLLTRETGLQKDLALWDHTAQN
row,Binder,fold lower affinity for cynomolgus NKp46 than for human NKp46 [fold]
1,B1,10
2,B2,10
